Earlier results in patent US6051590A, “Immunosuppressant tricyclic compounds” (Merck & Co., Inc., priority 1999, dated 2000).

Target: T1, Kv 1.3 channels (CHO cells transfected with Kv 1.3) (Homo sapiens, UniProt P22001)
T1 construct: expressed in transfected cells; host or cells: CHO cells
Conditions: stated in the method for the reference blocker

T1 sequence (P22001 whole entry): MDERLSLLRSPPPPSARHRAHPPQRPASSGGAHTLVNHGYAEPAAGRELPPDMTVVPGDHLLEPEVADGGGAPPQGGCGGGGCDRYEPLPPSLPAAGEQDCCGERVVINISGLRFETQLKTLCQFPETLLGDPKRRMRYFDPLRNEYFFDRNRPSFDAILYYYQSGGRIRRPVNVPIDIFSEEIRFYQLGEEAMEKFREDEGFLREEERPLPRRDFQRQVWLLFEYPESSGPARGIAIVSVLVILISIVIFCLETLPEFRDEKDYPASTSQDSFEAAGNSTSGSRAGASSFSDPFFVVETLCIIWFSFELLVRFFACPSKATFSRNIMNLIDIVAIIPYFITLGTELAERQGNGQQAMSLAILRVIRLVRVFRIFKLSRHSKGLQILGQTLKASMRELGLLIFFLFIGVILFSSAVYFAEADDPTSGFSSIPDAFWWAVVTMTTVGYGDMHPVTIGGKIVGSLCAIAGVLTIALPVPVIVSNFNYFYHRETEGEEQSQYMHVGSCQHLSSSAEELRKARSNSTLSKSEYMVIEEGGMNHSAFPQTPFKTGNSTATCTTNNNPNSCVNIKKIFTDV

**Q.** For “margatoxin (TIINVKCTSPKQCLPPCKAQFGQSAGAKCMNGKCKCYPH; UniProt P40755 1-39, looked up)”, which IC50 is on record?
**A.** 0.1 nM
